The subject of the data set is Escherichia coli TOP10. In words: shrunken log2 fold change of peptide-encoding DNA abundance (4.5 h post-induction vs induction); higher = less antimicrobial activity (less host growth inhibition). To be noted: time post-induction: 4.5 h; library: site-saturation at positions 5, 18, 19, 20.
For RRIRGRPPRLPRPRPRPCEAPRP, the “shrunken log2 fold change” value worked out at 0.838. The value for RRIRWRPPRLPRPRPRPCYCPRP was -0.247; that for RRIRVRPPRLPRPRPRPLTRPRP was 0.196. The value for RRIRCRPPRLPRPRPRPGHCPRP was -0.0435; that for RRIRERPPRLPRPRPRPFHHPRP was 0.0149; that for RRIRKRPPRLPRPRPRPRDSPRP was 0.262. With RRIRMRPPRLPRPRPRPARWPRP, the “shrunken log2 fold change” value is 1.49.

With RRIRDRPPRLPRPRPRPQNQPRP, the “shrunken log2 fold change” value was -0.0268. As to RRIRLRPPRLPRPRPRPAQKPRP, the “shrunken log2 fold change” value came out at 0.37. With RRIRVRPPRLPRPRPRPYNVPRP the figure was -0.0185; with RRIRHRPPRLPRPRPRPDTHPRP, -1.19; with RRIRCRPPRLPRPRPRPMKIPRP, 0.13.

As for RRIRQRPPRLPRPRPRPPLTPRP, the “shrunken log2 fold change” value was 0.0676. In the case of RRIRNRPPRLPRPRPRPHQHPRP, the “shrunken log2 fold change” value was -0.654. With RRIRARPPRLPRPRPRPACNPRP the figure was 0.089; with RRIRMRPPRLPRPRPRPCAPPRP, 0.478; with RRIRIRPPRLPRPRPRPMFNPRP, -0.923. With RRIRCRPPRLPRPRPRPPFMPRP the figure was 0.114. The value for RRIRGRPPRLPRPRPRPKRTPRP was 1.01; that for RRIRIRPPRLPRPRPRPYHDPRP was -0.28; that for RRIRCRPPRLPRPRPRPVYAPRP was -0.515. With RRIRRRPPRLPRPRPRPPPHPRP, the “shrunken log2 fold change” value turned out to be 0.968. With RRIRARPPRLPRPRPRPRQYPRP the figure was -0.294.

Consider RRIRCRPPRLPRPRPRPLNFPRP, for which the “shrunken log2 fold change” value is -0.0754. In the case of RRIRYRPPRLPRPRPRPLFMPRP, the “shrunken log2 fold change” value is -1.24. With RRIRKRPPRLPRPRPRPEGWPRP the figure was 1.46.

For RRIRWRPPRLPRPRPRPGFDPRP, the “shrunken log2 fold change” value was found to be 0.517. With RRIRRRPPRLPRPRPRPMYWPRP the figure was -0.185; with RRIRQRPPRLPRPRPRPAFKPRP, -0.015; with RRIRDRPPRLPRPRPRPNTCPRP, -0.0241. For the sequence RRIRMRPPRLPRPRPRPTETPRP, the “shrunken log2 fold change” value came out at 0.511. The value for RRIRWRPPRLPRPRPRPKVWPRP was 0.68; that for RRIRRRPPRLPRPRPRPSKQPRP was -0.118; that for RRIRNRPPRLPRPRPRPFQHPRP was -0.00968. With RRIRHRPPRLPRPRPRPLCCPRP the figure was -0.0675; with RRIRMRPPRLPRPRPRPWDIPRP, 0.232. With RRIRVRPPRLPRPRPRPIPMPRP the figure was -0.094; with RRIRCRPPRLPRPRPRPFLRPRP, -0.0477. Turning to RRIRHRPPRLPRPRPRPKPPPRP, the “shrunken log2 fold change” value is 0.55. With RRIRDRPPRLPRPRPRPTYYPRP the figure was -0.204; with RRIRARPPRLPRPRPRPACQPRP, 0.486; with RRIRDRPPRLPRPRPRPYNCPRP, -0.0352. With RRIRSRPPRLPRPRPRPIEWPRP the figure was 0.0274; with RRIRHRPPRLPRPRPRPAADPRP, 0.274; with RRIRIRPPRLPRPRPRPGGDPRP, 0.0406. The value for RRIRGRPPRLPRPRPRPQGHPRP was 0.278; that for RRIRARPPRLPRPRPRPGEDPRP was 0.814; that for RRIRIRPPRLPRPRPRPLIRPRP was -0.508. In the case of RRIRDRPPRLPRPRPRPMWSPRP, the “shrunken log2 fold change” value is -0.0459. With RRIRDRPPRLPRPRPRPEWVPRP the figure was -0.0272; with RRIRKRPPRLPRPRPRPTSAPRP, 0.797. For the sequence RRIRPRPPRLPRPRPRPQIVPRP, the “shrunken log2 fold change” value was -0.594. Take RRIRIRPPRLPRPRPRPKSCPRP: the “shrunken log2 fold change” value is -0.0687. Regarding RRIRQRPPRLPRPRPRPHVSPRP, the “shrunken log2 fold change” value is -0.108. With RRIRWRPPRLPRPRPRPFAAPRP the figure was 0.862; with RRIRIRPPRLPRPRPRPWAYPRP, 0.0382; with RRIRLRPPRLPRPRPRPSTLPRP, -0.552.

Regarding RRIRSRPPRLPRPRPRPEDEPRP, the “shrunken log2 fold change” value is -0.0488. For the sequence RRIRWRPPRLPRPRPRPLPFPRP, the “shrunken log2 fold change” value is -0.387. With RRIRRRPPRLPRPRPRPYVTPRP the figure was -0.383. With RRIRYRPPRLPRPRPRPYLEPRP the figure was -1.7.

Turning to RRIRVRPPRLPRPRPRPASLPRP, the “shrunken log2 fold change” value is -0.372. With RRIRYRPPRLPRPRPRPVNHPRP the figure was -0.073.

For the origin of these results see the supplement of paper PMC9112550, “Optimization of the antimicrobial peptide Bac7 by deep mutational scanning” (BMC Biology, 2022).
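Further: peptides expressed intracellularly from a pBAD plasmid library in pooled LB shake-flask culture, induced with 0.3% L-arabinose, DNA abundance read by NGS, three biological replicates, DESeq2 with apeglm shrinkage.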
